Experimental data reported in PMC9330529.

What was measured:
[1] = biological target: SARS-CoV-2 S2 protein (SARS-CoV-2 (WT), UniProt P0DTC2 686-1213); assay: streptavidin bead fluorescence binding; conditions: protein: commercial, tags: His
[2] = biological target: SARS-CoV-2 S2 protein (SARS-CoV-2 (WT), UniProt P0DTC2 686-1213); assay: streptavidin bead fluorescence binding; conditions: protein: commercial; tags: His
[3] = biological target: SARS-CoV-2 spike protein WT (SARS-CoV-2 (WT), UniProt P0DTC2 14-1213); assay: streptavidin bead fluorescence binding; conditions: protein: commercial, tags: His, chain copies: 3
[4] = biological target: SARS-CoV-1 spike protein (SARS-CoV-1, UniProt P59594 14-1195)
[5] = biological target: SARS-CoV-2 S1 protein (SARS-CoV-2, UniProt P0DTC2 14-685)
[6] = biological target: PD-L1 (UniProt Q9NZQ7 19-238); assay: AuNP colorimetric assay; 1.5 M NaCl, 250 nM each; SELEX buffer: PBS, 1 mM MgCl2, 0.01% Tween, pH 7.4, room temperature; conditions: protein: commercial; hairpin
Chain of PD-L1 (Q9NZQ7 19-238): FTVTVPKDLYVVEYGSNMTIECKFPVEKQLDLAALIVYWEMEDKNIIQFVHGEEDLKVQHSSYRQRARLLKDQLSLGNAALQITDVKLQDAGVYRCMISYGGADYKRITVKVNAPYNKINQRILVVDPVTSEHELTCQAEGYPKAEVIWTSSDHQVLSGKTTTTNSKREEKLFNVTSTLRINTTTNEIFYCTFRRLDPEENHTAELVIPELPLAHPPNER

B1: S2A2 (ssDNA)
DNA: CAAGGAGCGACCAGAGGCGGGTTCCTAGACTTGTACTCAGCCTTTACAGCTATGCCCTGGCATCCTTCAGCCC
Binder B1 has a Kd ([1]; label: 6-FAM) of 44.2 ± 6.6 nM.

B2: S2A1C1 (ssDNA)
DNA: CAAGGAGCGACCAGAGGGGCGGTTTATCAACAACTCGCTCTGTACACCACTCTTTG
B2: binds [2].

CAAGGAGCGACCAGAGGCGGGTTCCTAGACTTGTACTCAGCCT (ssDNA) [S2A2C3]: binds ([1]; label: 6-FAM).

With CGCAGCACCCAAGAACAAGGACTGCTTAGGATTGCGATAGGTTCGG (ssDNA) [S1B6C3] the Kd [3] was 56.4 ± 14.2 nM.

B3: S2A1 (ssDNA)
DNA: CAAGGAGCGACCAGAGGGGCGGTTTATCAACAACTCGCTCTGTACACCACTCTTTGTTGGCATCCTTCAGCCC
B3 was tested, and the Kd [2] was 49.7 ± 3.2 nM.

With AGGCGGGTTCCTAGACTTGTACTCAGCCT (ssDNA) [S2A2C1] the Kd ([3]; hairpin) was 83.4 ± 8 nM, the Kd ([1]; hairpin) was 35 ± 4.3 nM and the binding result [4] was “binds”. AGGCGGGTTCCTAGACTTGTACTCAGCCT (ssDNA) [S2A2C1]: no binding [5]; no binding [6].
